Key:
E. coli = assay: lacZ recombineering assay (blue/white screening); type: cell-based, Escherichia coli; details: for Editing efficiency, 18-bp consecutive mismatches into lacZ / Editing efficiency, 30-bp consecutive mismatches into lacZ: wild type E. coli MG1655
Description: Top individual SSAPs (SEQ ID NO: 157 and SEQ ID NO: 24, using Redβ as a control) were expressed in E. coli from a lambda pL promoter. The mutational profile of edits are shown in FIG. 5, including the efficiency of introducing 18-nucleotide (NT) and 30-NT mismatches. Efficiency was measured by disruption of LacZ, plating on X-gal, and counting the number of blue vs. white colonies. In contrast to FIG. 1A, a high over-performance by the SSAP (SEQ ID NO: 157) alone was observed when it was driven off of a more efficient promoter.
To maximize the phylogenetic reach and applicability of these new tools, CspRecT was characterized, alongside Redβ and PapRecT, subcloned into the pORTMAGE plasmid system (FIGS. 10A-10B, Addgene accession: #120418). This plasmid contains a broad-host RSF1010 origin of replication, establishes tight regulation of protein expression with an m-toluic-acid inducible expression system, and disables MMR by transient overexpression of a dominant-negative mutant of E. coli MutL (MutL E32K) (Nyerges et al., Proc. Natl. Acad. Sci. U.S.A. 113, 2502-2507 (2016)), which makes it possible to establish high-efficiency editing without modification of the host genome. […] This pORTMAGE plasmid expressing CspRecT was referred to as pORTMAGE-Ec1 (Addgene).
Oligos were designed to introduce I) premature STOP codons into lacZ for E. coli, K. pneumoniae, and C. freundii, or II) RpsL K43→R; GyrA T83→I; ParC S83→L; RpoB D521→V, or a premature STOP codon into nfxB for P. aeruginosa. Oligo-mediated recombineering was performed as described above on all bacterial strains. After recovery overnight, cells were plated at empirically-determined dilutions to a density of 200-500 colonies per plate. In the case of LacZ screening, plating was assayed on MacConkey agar plates or on X-Gal/IPTG LB^L agar plates in the case of K. pneumoniae. In the case of selective antibiotic screening, cultures were plated onto both selective and non-selective plates. Selective antibiotic concentrations used were the same as those described for the selective testing above, except that in P. aeruginosa 100 μg/ml STR and 1.5 μg/ml CIP were used unless otherwise noted. Variants that were resistant to multiple antibiotics were selected on LB^L agar plates that contained the combination of all corresponding antibiotics. Non-selective plates were antibiotic-free LB^L agar plates. In all cases, allelic-replacement frequencies were calculated by dividing the number of recombinant CFUs by the number of total CFUs. Plasmid maintenance was ensured by supplementing all media and agar plates with either KAN (50 μg/ml) or GEN (20 μg/ml). Minimum Inhibitory Concentration (MIC) Measurement in P. aeruginosa

E. coli MG1655 = assay: Single-cycle multiplex genome editing with oligo pools, read out by NGS; type: cell-based, Escherichia coli; details: for Average editing efficiency at all loci: 19 simultaneous edits
Description: CspRecT was then tested at a variety of more complex genome editing tasks. For longer strings of consecutive mismatches, which are lower efficiency events, CspRecT was again about twice as efficient as Redβ. […] To further investigate the performance of CspRecT at complex, highly multiplexed genome editing tasks, a set of 20 oligos spaced evenly around the E. coli genome was designed, each of which incorporates a single-nucleotide synonymous mutation at a non-essential gene. Next, while expressing Redβ, PapRecT, and CspRecT separately from the corresponding pORTMAGE plasmid, a single cycle of genome editing was performed with equimolar pools of 1, 5, 10, 15, and 20 oligos and assayed editing efficiency at each locus by PCR amplification coupled to targeted next generation sequencing (NGS). […] For instance, when making 19 simultaneous edits (one oligo from the pool of 20 could not be read out due to inconsistencies in allelic amplification), CspRecT averaged 5.1% editing efficiency at all loci, whereas Redβ and PapRecT averaged only 0.40% and 0.43%. Importantly, despite keeping total oligo concentration fixed across all pools, aggregate editing efficiency increased as more oligos were present in each pool. For instance, when using CspRecT with a 19-oligo pool, aggregate editing efficiency was nearly 100%, implying that across the total recovered population of E. coli there averaged one edit per cell.
To measure single locus editing, a recombineering cycle was run with an oligo that confers a single base pair non-coding mismatch in a non-essential gene. The allele was then amplified by PCR and editing efficiency was measured by NGS as described above. To test multiplex editing, the concentration of oligo was held fixed (10 μM in the final electroporation mixture), but the total number of oligos in the mixture was varied. Pools of oligos to test editing at 5, 10, 15, or 20 alleles simultaneously were designed so as to space the edits relatively evenly around the genome. The 5-oligo pool contained oligo #'s 3,7,11,15,17, the 10-oligo pool added oligo #'s 1,5,9,13,19, the 15-oligo pool added oligo #'s 4,8,12,16,18, and the final 20-oligo pool contained silent mismatch MAGE oligos.

L. rhamnosus = type: cell-based; details: L. rhamnosus
Description: Finally, the model for RecT was used to establish recombineering in L. rhamnosus, a well-studied probiotic used to treat a variety of illnesses including diarrhea and bacterial vaginosis. Although the L. rhamnosus SSB and L. lactis SSB only have 47% identity, they share identical SSB C-terminal tail 7 amino acids. It was determined whether LrpRecT (which functions in L. lactis) is portable to L. rhamnosus, while the other RecT proteins would not be functional.

[1] = wild-type E. coli MG1655, pORTMAGE plasmid

B1: CspRecT: RecT SSAP (UniParc ID: UPI0001837D7F) from a phage of Collinsella stercoris (protein)
chain: MNQIVKFTDDSGLAVQVTPDDVRRYICENATEKEVGLFLQLCQTQRLNPFVKDAYLVKYGGAPASMITSYQVFNRRACRDANYDGIKSGVVVLRDGDVVHKRGAACYKKAGEELIGGWAEVRFKDGRETAYAEVALDDYSTGKSNWAKMPGVMIEKCAKAAAWRLAFPDTFQGMYAAEEMDQAQQPEQVRAQAEQPVDLQPIRELFKPYCEHFGITPAEGMTAVCGAVGAEGMHSMTEQQARRARAWMEEEMAAPAVEAEYEVVDEGEVF
modifications: Collinsella stercoris DSM 13279
E. coli; E. coli, lambda pL promoter
  Editing efficiency relative to other SSAPs: about double the efficiency of Redβ or SSAP SEQ ID NO: 24
E. coli
  Editing efficiency, 18-bp consecutive mismatches into lacZ: 6%
  Editing efficiency, 30-bp consecutive mismatches into lacZ: 3%
E. coli; [1]
  Editing efficiency, average over single-base mismatches: 43%
  Editing efficiency, various single-base mismatches: 35-51%
E. coli MG1655; 19-oligo pool
  Aggregate editing efficiency: ~100%
E. coli MG1655
  Average editing efficiency at all loci: 5.1%

B2: Redβ: Redβ SSAP from Enterobacteria phage λ, SEQ ID NO: 474 (protein)
chain: MSTALATLAGKLAERVGMDSVDPQELITTLRQTAFKCDASDAQFIALLIVANQYGLNPWTKEIYAFPDKQNGIVPVVGVDGWSRIINENQQFDGMDFEQDNESCTCRIYRKDRNHPICVTEWMDECRREPFKTREGREITGPWQSHPKRMLRHKAMIQCARLAFGFAGIYDKDEAERIVENTAYTAERQPERDITPVNDETMQEINTLLIALDKTWDDDLLPLCSQIFRRDIRASSELTQAEAVKALGFLKQKATEQKVAA
modifications: Bacteriophage Lambda
E. coli
  Editing efficiency, 18-bp consecutive mismatches into lacZ: 3%
  Editing efficiency, 30-bp consecutive mismatches into lacZ: 1%
E. coli MG1655
  Average editing efficiency at all loci: 0.40%
L. rhamnosus
  Oligonucleotide incorporation: negligible activity

B3: PapRecT: SSAP from Pseudomonas aeruginosa, SEQ ID NO: 24, UniParc ID: UPI0001E9E6CB (protein, listed as Pseudomonas aeruginosa)
chain: MGTALTPLLTKFATRYEMGTTPEEVANTLKQTCFKGQVNDSQMVALLIVADQYKLNPFTKELYAFPDKNNGIVPVVGVDGWARIINENPQFDGMEFSMDQQGTECTCKIYRKDRSHAISATEYMAECKRNTQPWQSHPRRMLRHKAMIQCARLAFGFAGIYDQDEAERIVERDVTPAEQYEDVSEAICLIKDSPTMEDLQAAFSNAWKAYKTKGARDQLTAAKDQRKKELLDAPIDVEFEETGDDRAA
E. coli MG1655
  Average editing efficiency at all loci: 0.43%
L. rhamnosus
  Oligonucleotide incorporation: negligible activity

— patent US20220228157A1, “GENE EDITING IN DIVERSE BACTERIA” (priority 2019, published 2022)
